What was measured:
AtcC-6His (SO_1846) [1] = biological target: T1, AtcC-6His (SO_1846) (Shewanella oneidensis MR-1, UniProt Q8EFW9 1-298); assay: pull-down; details: both partners purified
T1 construct: AtcC (SO_1846) of Shewanella oneidensis MR-1, 34 kDa; pBad33-AtcC was made by moving the insert of pET-AtcC, so both give AtcC with a C-terminal 6-His tag; also called AtcC with a 6His-tag; not shown: His6, C-terminal, kept
T1 sequence (looked up): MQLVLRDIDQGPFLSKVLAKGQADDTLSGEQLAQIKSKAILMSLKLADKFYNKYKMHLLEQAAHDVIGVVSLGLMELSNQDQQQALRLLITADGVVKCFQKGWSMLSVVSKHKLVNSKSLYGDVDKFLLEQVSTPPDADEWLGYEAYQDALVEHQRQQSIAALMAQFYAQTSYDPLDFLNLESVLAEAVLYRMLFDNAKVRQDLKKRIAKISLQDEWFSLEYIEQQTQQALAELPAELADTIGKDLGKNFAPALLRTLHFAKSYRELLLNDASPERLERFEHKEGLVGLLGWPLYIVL

[2] = biological target: DnaK-6His from S. oneidensis (Shewanella oneidensis MR-1, UniProt Q8EHT7 1-639); assay: cell-based or functional assay
AtcC-6His (SO_1846) [3] = biological target: T1, AtcC-6His (SO_1846); assay: ITC; 25 °C, buffer B (50 mM Tris-HCl, 100 mM KCl, 10% glycerol, 1 mM DTT); 285 µM ligand titrated into 36 µM AtcC in the cell; one set of sites model; details: both partners purified

Sequence of DnaK-6His from S. oneidensis (Q8EHT7 whole entry): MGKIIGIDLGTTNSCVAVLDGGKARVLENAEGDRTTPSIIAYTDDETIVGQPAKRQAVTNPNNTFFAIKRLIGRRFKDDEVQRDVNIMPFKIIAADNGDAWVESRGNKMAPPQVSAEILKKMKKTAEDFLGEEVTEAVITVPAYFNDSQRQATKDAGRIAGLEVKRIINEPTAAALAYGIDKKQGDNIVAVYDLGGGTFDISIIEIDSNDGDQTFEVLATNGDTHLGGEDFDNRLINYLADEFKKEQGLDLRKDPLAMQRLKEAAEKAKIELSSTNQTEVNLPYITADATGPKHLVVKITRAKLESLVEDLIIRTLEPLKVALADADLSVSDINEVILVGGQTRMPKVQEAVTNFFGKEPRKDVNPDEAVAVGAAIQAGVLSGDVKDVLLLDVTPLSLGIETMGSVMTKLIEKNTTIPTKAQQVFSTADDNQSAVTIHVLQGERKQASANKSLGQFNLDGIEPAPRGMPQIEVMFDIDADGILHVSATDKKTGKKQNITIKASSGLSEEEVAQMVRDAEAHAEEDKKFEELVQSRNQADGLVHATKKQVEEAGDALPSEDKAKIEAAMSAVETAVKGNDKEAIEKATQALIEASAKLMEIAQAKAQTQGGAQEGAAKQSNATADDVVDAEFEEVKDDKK

B1: Strep-AtcB (natural protein, Shewanella oneidensis MR-1, UniProt Q8EFW7 1-252, looked up)
chain: MNTSLIEITVAEIKELADVEPKQASKRFELIATTMNDEQLVEVIEKMDIVTLTQINSHHDISCPSIMSELMTPEQIRDIVCQQPLYWEEKIKNNAEELIQHTFDFLTYLIRIQDSEEKQTAILECIAEDPAGLFYLSIPFIEMMLGEGHDDEDHINDYYDDEEDTDTIGYDSRVASEEAHSFSLDDPRSLMALIHELAPDVEKAIKNLLRNESSGWETIINKFVNELVIQAKEKNQVTDEYAEVDDMFSFLD
notes: AtcB (SO_1848) of Shewanella oneidensis MR-1, 29 kDa; also called AtcB with a Strep-tag; purified AtcB
AtcC-6His (SO_1846) [1]
  binding result: binds

B2: AtcJ-6His (Adaptation to cold protein J, SO_1850) (natural protein, Shewanella oneidensis MR-1, UniProt Q8EFW5 1-94, looked up)
chain: MINHFSVLGIKPSAKEDDIKKAYRRLSNKYHPDKLLGASDEEKEQASQQLERVKKAYEVLSDPKLRNAFIRDFNNVIVTDPNSAMRELWDQFYP
notes: AtcJ (SO_1850) of Shewanella oneidensis MR-1, a 94-amino acid J-domain protein (J-domain 1-73 and a C-terminal extension of 21 amino acids); also called wild-type AtcJ; AtcJ-WT
[2]
  stimulation of the ATPase activity of DnaK in the presence of GrpE (2 µM) from S. oneidensis: 2.7 fold
AtcC-6His (SO_1846) [3]
  Kd: 7 ± 2 nM
  stoichiometry N: 1

B3: pep21, synthetic peptide corresponding to the last 21 amino acids of AtcJ (peptide)
peptide: NNVIVTDPNSAMRELWDQFYP
notes: last 21 amino acids of AtcJ (SO_1850) of Shewanella oneidensis (94 amino acids; N74 is the first residue of the extension); The methods sentence says 'last 21 amino acids of AtcC'; results and legends say AtcJ; also called the peptide
AtcC-6His (SO_1846) [3]
  Kd: 80 ± 12 nM

Reference: PMC6715715 (Communications Biology, 2019)
